According to patent US20070117112:
Like-named read-outs stand apart in the source and are kept apart here.

How the values were obtained:
[1] = target: T7 RNA polymerase Y639L/H784A/K378R (LAR) (Bacteriophage T7) (UniProt P00573); conditions: 2'-OMe NTPs
[2] = target: T7 RNA polymerase Y639L/H784A/K378R (LAR) (Bacteriophage T7) (UniProt P00573); conditions: 15 mL 2'-OMe NTP transcription, 8 mM MgCl2, 2.5 mM MnCl2
[3] = target: T7 RNA polymerase P266L/Y639L/H784A/K378R (LLAR) (Bacteriophage T7) (UniProt P00573); conditions: 2'-OMe NTP transcription; at 2.6 ug/ml enzyme (130 at 11, 13 at 0.66, 8.3 at 0.16 ug/ml); template made with 5' poly-A extended primer
[4] = target: T7 RNA polymerase Y639L/H784A/K378R (LAR) (Bacteriophage T7) (UniProt P00573); conditions: 2'-OMe NTP transcription; 2.1 ug/ml enzyme, 8 mM MgCl2, 2.5 mM MnCl2, 37 C; template made with 5' poly-A extended primer

## TAATACGACTCACTATAGGAGCCTTCCTCCGGANNNNNNNNNNNNNNNNNNNNNNNNNNNNNNNNNNNNNNNNTCCGGTTTCCCGAGCTT (double strand) [Template 6]
[1]; listed as Pool 2, relative to Pool 4
  activity (% relative yield): 88

## TAATACGACTCACTATAGGGAGAATTCCGACCACAAGNNNNNNNNNNNNNNNNNNNNNNNNNNNNNNNNNNNNNNNNCATATGTGCGTCTACATGGATCCTCA (double strand) [Template 4]
[2]
  activity (nmol transcript): 27.8

## TAATACGACTCACTATAGGGAGAATTCCGACCAGAAGCTTNNNNNNNNNNNNNNNNNNNNNNNNNNNNNNNNNNNNNNNNCATATGTGCGTCTACATGGATCCTCA (double strand) [Template 1]
[2]
  activity (nmol transcript): 18.7

## TAATACGACTCACTATAGGGAGACAAGAATAAACGCTCAANNNNNNNNNNNNNNNNNNNNNNNNNNNNNNNNNNNNNNNNTTCGACAGGAGGCTCACAACAGGC (double strand) [Template 7]
[1]; listed as Pool 3, relative to Pool 4
  activity (% relative yield): 130

## TAATACGACTCACTATAGGGAGAGACAAGCTTGGGTCNNNNNNNNNNNNNNNNNNNNNNNNNNNNNNNNNNNNNNNNAGAAGAGAAAGAGAAGTTAATTAAGGATCCTCAG (double strand) [Template 3]
[2]
  activity (nmol transcript): 20.2

## TAATACGACTCACTATAGGGAGAGCGGAAGCCGTGCTGGGGCCNNNNNNNNNNNNNNNNNNNNNNNNNNNNNNNNNNNNNNNNCATAACCCAGAGGTCGATGGATC (double strand) [Template 2]
[2]
  activity (nmol transcript): 17.4

## TAATACGACTCACTATAGGGCCTTGTAGCGTGCATTCTTGNNNNNNNNNNNNNNNNNNNNNNNNNNNNNNCTAACATACTCCGAATCTGTCGAA (double strand) [Template 5]
[1]; listed as Pool 1, relative to Pool 4
  activity (% relative yield): 80

## TAATACGACTCACTATAGGGGAGTACAATAACCAGACATNNNNNNNNNNNNNNNNNNNNNNNNNNNNNNGGATCGTTACGACTAGCATCGATG (double strand) [Template 8]
[1]; listed as Pool 4 (reference)
  activity (% relative yield): 100

## TAATACGACTCACTATAGGGGAGTACAATAACGTTCTCGNNNNNNNNNNNNNNNNNNNNNNNNNNNNNNGGATCGTTACGACTAGCATCGATG (double strand) [ARC2118 template library]
[3]
  activity (% normalized yield): 65
[4]
  activity (% normalized yield): 100
